Measurements: patent US20240398906A1

How the values were obtained:
[1] = target: endogenous HSP70 from the mouse Ret melanoma cell line (mouse) (UniProt Q61696); test: cell-based or functional assay
[2] = target: recombinant HSP70 (UniProt P0DMV8); test: ELISA, plate coated with recombinant HSP70, detection with anti-human peroxidase antibody
[3] = target: recombinant catalytic domain of human LOX (169-417) (human) (UniProt P28300); test: ELISA, plate coated with LOX catalytic domain, detection with anti-human peroxidase antibody
Sequence of recombinant catalytic domain of human LOX (169-417) (human) (P28300 169-417 limits assumed): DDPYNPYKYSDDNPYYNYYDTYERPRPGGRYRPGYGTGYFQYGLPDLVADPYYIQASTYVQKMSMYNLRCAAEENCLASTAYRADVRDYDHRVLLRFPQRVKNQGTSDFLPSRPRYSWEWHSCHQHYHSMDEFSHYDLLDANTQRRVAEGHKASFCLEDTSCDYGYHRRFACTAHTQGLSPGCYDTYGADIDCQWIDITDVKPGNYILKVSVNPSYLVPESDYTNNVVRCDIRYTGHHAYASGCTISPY

Sequence of recombinant HSP70 (P0DMV8 whole entry, the tested form may be a part): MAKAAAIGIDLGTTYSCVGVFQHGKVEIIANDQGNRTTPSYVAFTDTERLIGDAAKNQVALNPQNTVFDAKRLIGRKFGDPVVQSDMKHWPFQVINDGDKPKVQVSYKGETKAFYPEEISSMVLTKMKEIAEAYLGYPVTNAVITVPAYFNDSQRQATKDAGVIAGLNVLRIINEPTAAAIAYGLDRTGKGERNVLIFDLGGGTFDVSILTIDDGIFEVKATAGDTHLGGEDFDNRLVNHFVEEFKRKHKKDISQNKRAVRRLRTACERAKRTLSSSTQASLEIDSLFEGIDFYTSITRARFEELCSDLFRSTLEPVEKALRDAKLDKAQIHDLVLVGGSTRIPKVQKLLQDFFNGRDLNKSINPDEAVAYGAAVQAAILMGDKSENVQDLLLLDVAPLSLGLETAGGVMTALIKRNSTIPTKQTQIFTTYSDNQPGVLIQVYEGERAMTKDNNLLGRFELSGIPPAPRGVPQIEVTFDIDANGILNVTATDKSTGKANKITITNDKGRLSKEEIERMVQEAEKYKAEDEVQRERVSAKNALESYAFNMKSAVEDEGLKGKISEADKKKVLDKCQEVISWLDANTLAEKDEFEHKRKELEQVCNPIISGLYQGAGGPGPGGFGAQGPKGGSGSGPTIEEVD
Sequence of endogenous HSP70 from the mouse Ret melanoma cell line (mouse) (Q61696 2-641): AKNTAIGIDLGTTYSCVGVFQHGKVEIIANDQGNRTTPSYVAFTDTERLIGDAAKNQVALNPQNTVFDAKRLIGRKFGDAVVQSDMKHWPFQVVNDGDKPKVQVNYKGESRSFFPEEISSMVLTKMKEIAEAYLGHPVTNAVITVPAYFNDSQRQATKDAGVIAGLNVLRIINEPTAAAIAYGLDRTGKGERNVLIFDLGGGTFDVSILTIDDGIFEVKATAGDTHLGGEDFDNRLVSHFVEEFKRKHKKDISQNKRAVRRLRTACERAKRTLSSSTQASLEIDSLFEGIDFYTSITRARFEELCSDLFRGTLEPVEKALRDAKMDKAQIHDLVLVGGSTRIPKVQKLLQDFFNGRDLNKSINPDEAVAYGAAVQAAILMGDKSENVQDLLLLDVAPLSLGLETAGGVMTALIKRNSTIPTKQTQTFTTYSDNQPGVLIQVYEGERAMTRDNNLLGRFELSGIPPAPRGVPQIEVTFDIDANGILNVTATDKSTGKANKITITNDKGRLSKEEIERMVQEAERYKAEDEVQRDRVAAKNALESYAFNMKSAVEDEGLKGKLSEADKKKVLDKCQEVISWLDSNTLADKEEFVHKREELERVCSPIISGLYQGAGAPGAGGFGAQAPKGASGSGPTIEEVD

ATPase activity of HSP70 in the culture media of Ret-melanoma cells (decrease against Fc) [1]: 18%
EC50 [2]: 57 nM
EC50 [3]: 58 nM
Substance: AS2 (non-glycosylated LOX-PP fused to human IgG1 Fc) (Fc fusion)
